Measurements reported in paper PMC3302164.

Target: HA-PP1β, expressed in HEK 293 cells (human) (UniProt P62140)
Assay: co-IP

Chain of HA-PP1β, expressed in HEK 293 cells (human) (P62140 whole entry): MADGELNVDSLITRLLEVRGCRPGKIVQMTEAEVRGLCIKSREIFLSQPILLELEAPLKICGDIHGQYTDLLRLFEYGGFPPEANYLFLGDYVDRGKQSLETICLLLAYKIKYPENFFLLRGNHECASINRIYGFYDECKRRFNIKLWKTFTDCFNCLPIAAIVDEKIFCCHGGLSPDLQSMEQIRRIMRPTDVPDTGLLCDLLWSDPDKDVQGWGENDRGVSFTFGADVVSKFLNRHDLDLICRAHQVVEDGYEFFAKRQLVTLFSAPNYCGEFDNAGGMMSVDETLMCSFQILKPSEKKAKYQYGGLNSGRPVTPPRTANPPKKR

FLAG-KAP1 (wild type), expressed in HEK 293 cells (from UniProt Q13263 1-835) (natural protein)
extent of interaction relative to that with PP1α, after doxorubicin: 30%
